Laboratory results from the supplement of paper PMC10065799, “High-throughput profiling of sequence recognition by tyrosine kinases and SH2 domains using bacterial peptide display” (eLife, 2023).

Key:
MERTK = MERTK (UniProt Q12866); assay: phosphorylation enrichment, bacterial display (enrichment ratio); higher = better substrate or ligand; peptides without Tyr show the background
c-Src = assay: as above
EPHB2 = EPHB2 (UniProt P29323); assay: as above
FGFR1 = FGFR1 (UniProt P11362); assay: as above
Hck = Hck (UniProt P08631); assay: as above
Hck, sequence (P08631 whole entry, looked up): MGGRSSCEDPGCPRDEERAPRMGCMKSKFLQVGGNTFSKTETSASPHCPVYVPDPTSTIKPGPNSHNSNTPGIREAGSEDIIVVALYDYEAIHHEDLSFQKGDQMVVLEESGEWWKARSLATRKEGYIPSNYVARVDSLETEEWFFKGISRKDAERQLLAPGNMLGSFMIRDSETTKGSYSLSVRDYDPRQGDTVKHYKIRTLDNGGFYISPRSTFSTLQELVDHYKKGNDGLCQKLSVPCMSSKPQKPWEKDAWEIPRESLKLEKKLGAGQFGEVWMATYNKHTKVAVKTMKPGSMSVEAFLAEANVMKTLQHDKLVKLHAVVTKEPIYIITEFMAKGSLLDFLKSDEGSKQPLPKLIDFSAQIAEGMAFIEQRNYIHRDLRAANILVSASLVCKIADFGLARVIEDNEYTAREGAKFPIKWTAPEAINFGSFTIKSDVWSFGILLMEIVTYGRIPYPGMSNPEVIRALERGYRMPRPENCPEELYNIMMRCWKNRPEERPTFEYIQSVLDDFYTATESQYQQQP

c-Abl (mouse) = assay: as above
Fer (mouse) = assay: as above
EPHB1 = EPHB1 (UniProt P54762); assay: as above
Jak2 = Jak2 (UniProt O60674); assay: as above
Jak2, sequence (O60674 whole entry, looked up): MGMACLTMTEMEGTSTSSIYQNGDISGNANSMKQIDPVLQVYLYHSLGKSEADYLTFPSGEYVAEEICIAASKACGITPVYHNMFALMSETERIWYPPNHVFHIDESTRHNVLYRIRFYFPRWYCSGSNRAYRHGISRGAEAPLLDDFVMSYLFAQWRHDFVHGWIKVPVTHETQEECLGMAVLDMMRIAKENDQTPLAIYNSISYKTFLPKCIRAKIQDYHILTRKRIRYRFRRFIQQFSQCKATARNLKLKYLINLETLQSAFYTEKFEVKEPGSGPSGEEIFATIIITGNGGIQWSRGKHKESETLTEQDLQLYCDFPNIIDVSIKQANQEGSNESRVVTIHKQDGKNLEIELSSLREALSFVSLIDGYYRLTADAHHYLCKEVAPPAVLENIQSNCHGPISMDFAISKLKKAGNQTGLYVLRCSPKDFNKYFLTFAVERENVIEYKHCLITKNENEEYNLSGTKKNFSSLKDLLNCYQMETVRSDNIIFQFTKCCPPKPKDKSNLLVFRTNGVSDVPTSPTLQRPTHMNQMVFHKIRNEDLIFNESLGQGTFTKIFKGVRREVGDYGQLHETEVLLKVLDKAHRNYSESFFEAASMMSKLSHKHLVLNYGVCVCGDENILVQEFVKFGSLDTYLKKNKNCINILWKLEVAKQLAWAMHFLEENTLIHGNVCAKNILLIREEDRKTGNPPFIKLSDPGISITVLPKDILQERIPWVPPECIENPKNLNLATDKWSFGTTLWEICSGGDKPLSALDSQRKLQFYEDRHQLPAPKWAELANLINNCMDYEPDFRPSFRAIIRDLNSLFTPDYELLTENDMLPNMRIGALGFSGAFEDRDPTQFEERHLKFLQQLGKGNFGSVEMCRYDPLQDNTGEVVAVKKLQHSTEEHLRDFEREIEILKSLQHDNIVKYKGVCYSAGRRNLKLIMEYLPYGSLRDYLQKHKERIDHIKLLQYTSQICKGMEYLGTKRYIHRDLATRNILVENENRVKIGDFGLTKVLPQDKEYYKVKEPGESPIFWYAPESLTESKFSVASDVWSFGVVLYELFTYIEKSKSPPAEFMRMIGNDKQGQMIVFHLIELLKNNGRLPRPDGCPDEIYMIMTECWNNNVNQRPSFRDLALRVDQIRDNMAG

AncSZ = assay: as above
Fyn = Fyn (UniProt P06241); assay: as above
Fyn, sequence (P06241 whole entry, looked up): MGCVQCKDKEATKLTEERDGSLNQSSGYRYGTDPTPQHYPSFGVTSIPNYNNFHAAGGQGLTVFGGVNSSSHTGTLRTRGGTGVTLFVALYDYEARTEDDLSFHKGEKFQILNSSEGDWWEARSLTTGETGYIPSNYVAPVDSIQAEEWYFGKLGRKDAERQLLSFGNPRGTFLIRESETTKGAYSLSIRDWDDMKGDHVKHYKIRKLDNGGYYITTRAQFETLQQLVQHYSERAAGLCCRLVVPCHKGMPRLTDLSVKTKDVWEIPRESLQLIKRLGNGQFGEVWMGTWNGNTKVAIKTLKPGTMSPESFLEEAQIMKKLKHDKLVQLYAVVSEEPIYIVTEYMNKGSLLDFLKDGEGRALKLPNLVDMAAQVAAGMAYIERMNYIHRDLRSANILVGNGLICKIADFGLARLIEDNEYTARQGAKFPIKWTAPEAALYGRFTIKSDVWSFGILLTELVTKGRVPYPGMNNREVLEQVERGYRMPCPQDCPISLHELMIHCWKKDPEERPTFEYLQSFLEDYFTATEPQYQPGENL

FGFR3 = FGFR3 (UniProt P22607); assay: as above
FGFR3, sequence (P22607 whole entry, looked up): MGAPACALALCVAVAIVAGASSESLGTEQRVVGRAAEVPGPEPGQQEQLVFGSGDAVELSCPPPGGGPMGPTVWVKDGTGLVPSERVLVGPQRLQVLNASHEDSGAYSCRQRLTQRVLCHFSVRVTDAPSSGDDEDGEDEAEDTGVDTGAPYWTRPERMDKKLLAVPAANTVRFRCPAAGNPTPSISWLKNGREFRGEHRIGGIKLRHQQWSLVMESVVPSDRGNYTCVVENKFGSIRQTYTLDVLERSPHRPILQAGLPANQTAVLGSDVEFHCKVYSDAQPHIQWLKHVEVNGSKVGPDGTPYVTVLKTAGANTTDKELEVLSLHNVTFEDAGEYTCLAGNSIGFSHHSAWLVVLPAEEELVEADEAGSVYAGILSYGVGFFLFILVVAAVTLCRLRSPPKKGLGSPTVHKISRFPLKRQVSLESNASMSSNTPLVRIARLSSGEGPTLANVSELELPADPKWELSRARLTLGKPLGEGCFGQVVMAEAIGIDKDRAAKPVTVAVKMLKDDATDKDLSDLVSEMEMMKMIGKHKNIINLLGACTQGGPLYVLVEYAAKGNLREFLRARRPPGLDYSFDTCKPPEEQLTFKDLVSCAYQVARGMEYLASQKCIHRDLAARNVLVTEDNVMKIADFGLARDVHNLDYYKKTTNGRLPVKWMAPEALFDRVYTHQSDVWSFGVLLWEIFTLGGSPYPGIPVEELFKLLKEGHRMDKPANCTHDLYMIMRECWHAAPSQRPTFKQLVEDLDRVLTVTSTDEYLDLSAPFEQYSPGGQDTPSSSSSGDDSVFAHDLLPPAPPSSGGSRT

Fes = Fes (UniProt P07332); assay: as above
Fes, sequence (P07332 whole entry, looked up): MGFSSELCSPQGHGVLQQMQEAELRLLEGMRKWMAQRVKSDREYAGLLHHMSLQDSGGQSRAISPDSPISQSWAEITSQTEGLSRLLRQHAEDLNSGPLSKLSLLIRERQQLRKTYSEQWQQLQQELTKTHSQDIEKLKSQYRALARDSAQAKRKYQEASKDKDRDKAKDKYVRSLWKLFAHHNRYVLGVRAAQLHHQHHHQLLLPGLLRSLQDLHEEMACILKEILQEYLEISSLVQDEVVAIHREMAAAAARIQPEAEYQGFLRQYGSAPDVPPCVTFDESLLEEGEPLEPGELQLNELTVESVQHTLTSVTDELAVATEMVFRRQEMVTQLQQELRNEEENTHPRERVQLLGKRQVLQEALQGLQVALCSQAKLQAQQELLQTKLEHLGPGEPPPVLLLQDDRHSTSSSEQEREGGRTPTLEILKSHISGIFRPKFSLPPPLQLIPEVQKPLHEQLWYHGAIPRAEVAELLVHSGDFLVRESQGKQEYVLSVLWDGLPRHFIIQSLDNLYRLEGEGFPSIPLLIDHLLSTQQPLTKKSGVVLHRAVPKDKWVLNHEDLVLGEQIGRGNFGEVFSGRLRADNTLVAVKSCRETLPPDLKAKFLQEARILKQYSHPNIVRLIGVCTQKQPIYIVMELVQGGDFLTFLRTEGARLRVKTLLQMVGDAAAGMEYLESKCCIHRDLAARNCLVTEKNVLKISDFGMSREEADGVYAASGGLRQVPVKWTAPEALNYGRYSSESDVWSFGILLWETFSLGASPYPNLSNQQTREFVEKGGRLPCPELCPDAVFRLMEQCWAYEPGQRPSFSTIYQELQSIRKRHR

c-Src SH2 = assay: SH2 binding enrichment of the phosphorylated peptide, bacterial display (enrichment ratio); higher = better substrate or ligand; peptides without Tyr show the background
SHP2-C SH2 = assay: as above
Grb2 SH2 = Grb2 SH2 (UniProt P62993); assay: as above
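Wherever SH2 binding enrichment of the phosphorylated peptide, bacterial display is given: peptide library displayed on the E. coli surface as eCPX fusions, selected cells deep-sequenced, score is each peptide's frequency after selection divided by its frequency in the input.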
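Wherever phosphorylation enrichment, bacterial display is given: 11-residue human phosphosite peptides and single-mutation variants displayed on the E. coli surface, counted by deep sequencing, each peptide's frequency after selection divided by its frequency in the unselected input library; frequency after pTyr selection over input frequency; kinase dosed for 20-30% of maximal phosphorylation in three min.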

EPHB2, sequence (P29323 whole entry, looked up): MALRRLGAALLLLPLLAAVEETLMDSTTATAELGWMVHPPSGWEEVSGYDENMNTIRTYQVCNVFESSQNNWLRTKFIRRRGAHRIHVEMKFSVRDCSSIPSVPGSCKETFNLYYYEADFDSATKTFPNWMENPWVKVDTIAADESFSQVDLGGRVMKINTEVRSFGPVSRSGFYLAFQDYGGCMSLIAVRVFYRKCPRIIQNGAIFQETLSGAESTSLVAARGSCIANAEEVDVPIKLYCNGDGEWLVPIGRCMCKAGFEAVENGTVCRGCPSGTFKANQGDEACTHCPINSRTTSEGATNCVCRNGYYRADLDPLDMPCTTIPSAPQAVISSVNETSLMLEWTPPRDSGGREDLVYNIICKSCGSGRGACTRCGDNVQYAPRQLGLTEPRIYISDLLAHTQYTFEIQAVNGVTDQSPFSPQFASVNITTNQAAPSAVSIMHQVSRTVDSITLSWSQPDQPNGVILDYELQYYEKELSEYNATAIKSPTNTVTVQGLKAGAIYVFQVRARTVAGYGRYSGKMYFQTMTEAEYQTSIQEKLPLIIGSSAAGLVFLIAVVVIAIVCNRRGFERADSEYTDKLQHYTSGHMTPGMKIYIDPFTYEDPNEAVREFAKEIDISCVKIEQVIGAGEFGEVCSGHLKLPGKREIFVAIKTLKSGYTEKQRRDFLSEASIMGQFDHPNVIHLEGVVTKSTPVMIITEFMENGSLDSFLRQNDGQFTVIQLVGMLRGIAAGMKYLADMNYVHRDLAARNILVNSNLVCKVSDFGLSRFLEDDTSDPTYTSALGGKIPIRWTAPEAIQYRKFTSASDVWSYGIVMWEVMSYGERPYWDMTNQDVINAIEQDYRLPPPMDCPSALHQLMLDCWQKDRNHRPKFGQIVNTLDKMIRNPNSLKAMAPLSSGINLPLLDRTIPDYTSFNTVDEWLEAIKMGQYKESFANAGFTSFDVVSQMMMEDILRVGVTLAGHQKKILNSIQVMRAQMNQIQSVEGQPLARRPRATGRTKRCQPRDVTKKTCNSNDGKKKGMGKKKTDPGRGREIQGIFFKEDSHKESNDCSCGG

Row | SH2 binding enrichment (c-Src SH2) | SH2 binding enrichment (SHP2-C SH2) | SH2 binding enrichment (Grb2 SH2) | Sequence | phosphorylation enrichment (MERTK) | phosphorylation enrichment (c-Src) | phosphorylation enrichment (EPHB2) | phosphorylation enrichment (FGFR1) | phosphorylation enrichment (Hck) | phosphorylation enrichment (c-Abl (mouse)) | phosphorylation enrichment (Fer (mouse)) | phosphorylation enrichment (EPHB1) | phosphorylation enrichment (Jak2) | phosphorylation enrichment (AncSZ) | phosphorylation enrichment (Fyn) | phosphorylation enrichment (FGFR3) | phosphorylation enrichment (Fes)
1 | 0.41 | 0.527 | 0.855 | GKSFTYAAFHA [KCNT1_Y563] | 0.819 | 5.91 | 0.613 | 0.51 | 4.03 | 0.654 | 0.454 | 0.603 | 0.826 | 0.849 | 5.65 | 0.583 | 0.812
2 | 0.555 | 0.745 | 0.677 | GGYTCYSDGKK [PROS1_Y266_C267S] | 0.441 | 0.516 | 0.561 | 0.592 | 0.499 | 0.908 | 0.593 | 0.677 | 1.01 | 1.13 | 0.458 | 0.826 | 1.22
3 | 0.478 | 0.668 | 0.85 | ANAFIYVVQLP [L1CAM_Y420_YF] | 0.909 | 0.678 | 0.743 | 0.538 | 0.693 | 0.724 | 0.559 | 0.701 | 1.02 | 1.19 | 0.631 | 0.855 | 1.32
4 | 0.693 | 0.8 | 1.42 | FADPFYDFEIE [ZC3H18_Y372_YF] | 0.555 | 3.4 | 0.687 | 0.57 | 0.674 | 0.817 | 0.752 | 0.785 | 1.12 | 1.36 | 3.26 | 0.708 | 1.19
5 | 0.539 | 0.515 | 0.581 | FCVVRYCWLRR [MPZ_Y181_Y177C] | 0.656 | 0.738 | 0.603 | 0.552 | 0.577 | 0.773 | 0.404 | 0.45 | 0.586 | 0.718 | 0.606 | 0.709 | 0.76
6 | 0.543 | 0.989 | 0.942 | SETSRYLSDLF [KCNJ3_Y67] | 0.485 | 0.549 | 0.562 | 0.544 | 0.515 | 0.844 | 0.555 | 0.726 | 1.17 | 0.963 | 0.504 | 0.627 | 1.21
7 | 0.719 | 0.605 | 0.742 | FGISGYVVDSV [MAP2K3_Y214_L215V] | 0.443 | 0.412 | 0.517 | 0.478 | 0.49 | 0.532 | 0.421 | 0.543 | 0.761 | 0.775 | 0.449 | 0.623 | 0.956
8 | 1.51 | 1.84 | 2.26 | FLLRVYSIFSK [SGCE_Y38_T36R] | 0.634 | 1.49 | 0.402 | 0.574 | 0.504 | 0.987 | 0.433 | 0.321 | 0.804 | 0.886 | 0.437 | 1.28 | 1.02
9 | 1.24 | 0.661 | 0.961 | CEHFSYYGMKA [SLC15A2_Y60_R57H] | 1.54 | 2.37 | 0.644 | 5.26 | 1.93 | 0.708 | 0.812 | 0.52 | 5.02 | 1.06 | 0.866 | 3.17 | 0.933
10 | 0.829 | 1.66 | 0.86 | SSPQPYLVPFL [TAF4_Y652] | 0.514 | 0.49 | 0.867 | 0.522 | 0.481 | 1.09 | 0.466 | 0.415 | 2.85 | 0.857 | 0.497 | 0.746 | 0.78
11 | 0.62 | 0.686 | 0.856 | SAGSSYSISVI [PAX5_Y179_G183V] | 0.472 | 0.48 | 0.712 | 0.485 | 0.539 | 0.807 | 0.572 | 0.553 | 0.835 | 0.986 | 0.688 | 0.752 | 0.975
12 | 0.63 | 0.488 | 0.802 | PADQAYSWYQH [NDST1_Y711_R709Q] | 3.75 | 1.58 | 0.674 | 5.18 | 1.37 | 0.6 | 20.6 | 0.755 | 0.765 | 1.55 | 1.17 | 3.15 | 1.57
13 | 0.453 | 0.55 | 0.738 | EWKNNYPRLRE [OPA1_Y582] | 0.404 | 0.371 | 0.442 | 0.383 | 0.441 | 0.797 | 0.4 | 0.337 | 0.564 | 0.563 | 0.422 | 0.483 | 0.607
14 | 0.674 | 0.798 | 1.15 | GGRKGYGDFSR [RECQL5_Y478] | 0.425 | 0.418 | 0.354 | 0.345 | 0.33 | 0.944 | 0.352 | 0.412 | 0.422 | 0.416 | 0.334 | 0.363 | 0.622
15 | 1.06 | 1.3 | 1.28 | TVLWLYTGTRP [UGT1A1_Y337_R336L] | 0.318 | 0.255 | 0.487 | 0.369 | 0.466 | 0.532 | 0.527 | 0.548 | 1.06 | 1.17 | 0.68 | 0.742 | 1.27

Continued, sequence first:

Row | Sequence | SH2 binding enrichment (c-Src SH2) | SH2 binding enrichment (SHP2-C SH2) | SH2 binding enrichment (Grb2 SH2) | phosphorylation enrichment (MERTK) | phosphorylation enrichment (c-Src) | phosphorylation enrichment (EPHB2) | phosphorylation enrichment (FGFR1) | phosphorylation enrichment (Hck) | phosphorylation enrichment (c-Abl (mouse)) | phosphorylation enrichment (Fer (mouse)) | phosphorylation enrichment (EPHB1) | phosphorylation enrichment (Jak2) | phosphorylation enrichment (AncSZ) | phosphorylation enrichment (Fyn) | phosphorylation enrichment (FGFR3) | phosphorylation enrichment (Fes)
16 | AAVDTVCRHNY [HLA-DRB1_Y107_Y107V] | 0.534 | 0.636 | 0.788 | 0.511 | 0.473 | 0.429 | 0.612 | 0.64 | 0.795 | 0.417 | 0.463 | 0.739 | 0.645 | 0.494 | 0.673 | 0.842
17 | QFQEKYKQVEQ [HCN4_Y531_YF] | 0.603 | 0.876 | 0.624 | 0.559 | 0.679 | 0.95 | 0.699 | 0.882 | 0.913 | 0.63 | 0.663 | 2.09 | 1.27 | 0.564 | 0.706 | 1.29
18 | AKAEIYEMRPL [COX10_Y97] | 0.573 | 0.623 | 0.895 | 8.29 | 9.82 | 6.54 | 0.552 | 12.1 | 0.801 | 6.76 | 11 | 0.77 | 1.08 | 11.4 | 0.672 | 0.912
19 | MGGSVYFSFPD [HIKESHI_Y55_YF] | 0.662 | 0.908 | 0.892 | 3.89 | 5.05 | 0.991 | 3.19 | 2.64 | 1.12 | 0.55 | 1.09 | 1.94 | 1.55 | 4.01 | 2.85 | 1.32
20 | SGIYQYNIAKF [FOXL2_Y83_I84N] | 1.01 | 0.875 | 0.976 | 9.83 | 3.79 | 1.56 | 0.659 | 4.76 | 4.58 | 14.7 | 2.14 | 0.593 | 0.898 | 3.42 | 0.605 | 0.732
21 | IDQDKYAVRFI [FLNA_Y2388] | 0.54 | 0.696 | 0.865 | 0.379 | 0.393 | 0.458 | 0.425 | 0.524 | 0.566 | 0.473 | 0.459 | 0.635 | 0.78 | 0.488 | 0.545 | 0.787
22 | QRAADYFSQQM [GBP6_Y333_YF] | 0.338 | 0.353 | 0.789 | 0.352 | 0.687 | 0.57 | 0.558 | 0.488 | 0.586 | 0.491 | 0.469 | 0.698 | 1 | 0.546 | 0.634 | 0.921
23 | VNNTVYGIDAM [EIF3J_Y143_A141T] | 0.564 | 0.533 | 0.984 | 0.349 | 0.596 | 0.429 | 0.512 | 0.626 | 0.616 | 0.423 | 0.479 | 0.696 | 0.724 | 0.907 | 0.461 | 0.698
24 | TFMKQYPKVFL [CNBD1_Y70] | 0.559 | 0.811 | 0.836 | 0.364 | 0.486 | 0.541 | 0.55 | 0.473 | 0.521 | 0.436 | 0.54 | 0.591 | 0.82 | 0.525 | 0.56 | 1.09
25 | KDFETYQPFQN [CTNND2_Y1157_YF] | 0.544 | 0.699 | 0.948 | 0.463 | 4.18 | 0.786 | 0.54 | 5.76 | 0.741 | 0.612 | 0.69 | 0.869 | 1.13 | 4.76 | 0.603 | 1.02
26 | ERDFTYDELLN [EIF2S2_Y176_E177D_YF] | 1.2 | 0.789 | 1.07 | 0.537 | 0.796 | 0.598 | 0.58 | 0.994 | 0.894 | 0.638 | 0.616 | 1.46 | 1.53 | 0.667 | 0.815 | 1.33
27 | GANSEYIIAEK [ECHS1_Y35_F33S] | 0.435 | 0.487 | 1 | 0.581 | 0.646 | 0.618 | 0.483 | 0.587 | 0.764 | 0.468 | 0.711 | 1.1 | 1.26 | 0.64 | 0.61 | 1.01
28 | YPIDHYLGKEM [G6PD_Y202_R198P] | 0.434 | 0.576 | 0.708 | 0.412 | 0.505 | 0.54 | 0.613 | 0.492 | 0.584 | 0.415 | 0.405 | 0.806 | 0.771 | 0.48 | 0.577 | 0.891
29 | DTKDDYNALSV [IL17RB_Y457] | 0.498 | 0.668 | 0.869 | 0.426 | 0.443 | 0.625 | 0.544 | 0.546 | 0.679 | 0.483 | 0.495 | 0.916 | 1.08 | 0.599 | 0.718 | 1.07
30 | LEFNEYFRDLN [HPRT1_Y198_D194E_YF] | 0.488 | 0.743 | 0.926 | 0.795 | 0.809 | 1.15 | 1.09 | 0.828 | 0.805 | 0.769 | 1.21 | 1.25 | 2.14 | 0.992 | 1.95 | 1.66
31 | VILENYGADID [DNAH5_Y596_L591V] | 0.454 | 0.54 | 0.739 | 0.641 | 0.5 | 0.589 | 0.557 | 0.515 | 0.674 | 0.492 | 0.555 | 1.13 | 1.06 | 0.653 | 0.719 | 1.11
32 | EKNANYKEGTF [CLRN1_Y171_I168N_YF] | 0.503 | 0.874 | 0.944 | 0.425 | 0.389 | 0.445 | 0.401 | 0.381 | 0.647 | 0.397 | 0.346 | 0.635 | 0.715 | 0.452 | 0.46 | 0.757
33 | KSVVTYSPTTG [ITGB3BP_Y32_I30V] | 0.397 | 0.668 | 0.814 | 0.423 | 0.431 | 0.416 | 0.375 | 0.372 | 0.618 | 0.369 | 0.427 | 0.489 | 0.478 | 0.401 | 0.442 | 0.527
